This note sets out measurements from the supplement of paper PMC10126150.

For this data set, the system named is ATP. Description: switch fluorescence ratio, 500 uM ATP over buffer (Cy3 cluster intensity, sum of 5 cycles each) (fold (ratio)); higher = stronger signal-on switching upon ATP binding; sequences stand for … in TCGTCGGCAGCGTCAGATGTGTATAAGAGACAGTTTTTTTTTTTTTTTTTTTTTTTTT…TC. To be noted: aptamer strand: ATP DNA aptamer (quencher-CACCTGGGGGAGTATTGCGGAGGAAGG + anchor), 100 nM annealed; ATP concentration: 500 uM. A digest of the protocol: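 For every switch-domain sequence, the fluorescence ratio is the mean of per-cluster values, each being summed target-cycle Cy3 intensity over summed buffer-cycle Cy3 intensity. Clusters outside 100-1000 RFU were excluded. On a modified Illumina MiSeq flow-cell, the Cy3-labelled switching-strand clusters were annealed to 100 nM quencher-labelled ATP aptamer, imaged in selection buffer and then after 15 min with 500 uM ATP at 22 °C. Five such cycles were run, with NaOH stripping and re-annealing between them.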

± gives the standard deviation of the averaged measurements.
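Note: ATP exposure 15 min at 22 °C before imaging.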

Turning to GTGGGGGGCG, the switch fluorescence ratio came out at 1 ± 0.042. For the sequence TGGTTTGGCG, the switch fluorescence ratio stood at 1.02 ± 0.18. For TTATCGGTAT, the switch fluorescence ratio came out at 1 ± 0.042. In the case of TATTTTTGTT, the switch fluorescence ratio was found to be 1.05 ± 0.074. With TTTTAGGACA, the switch fluorescence ratio is 0.99977 ± 0.00081. For the sequence AGCCGTTGAG, the switch fluorescence ratio was determined as 0.9916 ± 0.0061. TGAGTCAAGC: the switch fluorescence ratio amounted to 1.01 ± 0.076.

As to CTGGGGGTTG, the switch fluorescence ratio was determined as 0.989 ± 0.044. Consider GTCAGTATAA, for which the switch fluorescence ratio came to 1.03 ± 0.059.

Take GGTAGGGCGA: the switch fluorescence ratio came out at 1.01 ± 0.026. Consider TCTGTAAGGG, for which the switch fluorescence ratio is 0.9783 ± 0.0076.

On to TTACATGGTA, for which the switch fluorescence ratio was found to be 0.977 ± 0.0024. Consider GAGCAGTGCA, for which the switch fluorescence ratio came out at 1.03 ± 0.037.

In the case of TTGGATTTAG, the switch fluorescence ratio turned out to be 0.998 ± 0.0044. Take CGTATATTAA: the switch fluorescence ratio came out at 0.975 ± 0.068. For GCAGTAAGTT, the switch fluorescence ratio is 0.978 ± 0.061. Take GGCACAGATT: the switch fluorescence ratio turned out to be 1.01 ± 0.019. For ATGCTTAGTT, the switch fluorescence ratio was 1.03 ± 0.051.

Turning to GGACGCCTTG, the switch fluorescence ratio stood at 0.976 ± 0.029. As for TGTTAATCAG, the switch fluorescence ratio stood at 0.98605 ± 0.00081. For the sequence TAAGTGAGAA, the switch fluorescence ratio amounted to 0.983 ± 0.038.

On to ATGATTAATT, for which the switch fluorescence ratio stood at 1.03 ± 0.017.

For GTTTGTTGGT, the switch fluorescence ratio was determined as 0.977 ± 0.013.

Take CTTCCCGCCG: the switch fluorescence ratio turned out to be 1.26 ± 0.057. Turning to CGAGGTAGCT, the switch fluorescence ratio was 1 ± 0.021. Consider AAAGCAATGG, for which the switch fluorescence ratio turned out to be 2.51 ± 2.

Take GGACTTTAAG: the switch fluorescence ratio was found to be 0.952 ± 0.046.

Turning to TTTTAAAGTA, the switch fluorescence ratio stood at 1.01 ± 0.031. Take TATGAGGTTC: the switch fluorescence ratio was determined as 0.983 ± 0.1. Take GCAACCGAGG: the switch fluorescence ratio is 1.04 ± 0.064. For TTTCTGGGGA, the switch fluorescence ratio was 0.991 ± 0.034. With GCGTTAGGCG, the switch fluorescence ratio came to 1.01 ± 0.044. On to TTAGTTTTCT, for which the switch fluorescence ratio came to 0.96 ± 0.013. On to GTTCAAAATT, for which the switch fluorescence ratio was 1.03 ± 0.036. Turning to TAAGGGGGCT, the switch fluorescence ratio amounted to 1.01 ± 0.034. Turning to GCGTCTATGA, the switch fluorescence ratio was found to be 1 ± 0.016.

Turning to GCCTAAGTTT, the switch fluorescence ratio is 0.986 ± 0.024. As for CAAGTGAGGC, the switch fluorescence ratio was found to be 0.987 ± 0.075.

CGGCGAATAT: the switch fluorescence ratio was found to be 1.024 ± 0.0011. Turning to TCTGGTTGTA, the switch fluorescence ratio turned out to be 0.995 ± 0.051. On to TGAGGGTTGC, for which the switch fluorescence ratio worked out at 1.01 ± 0.018. For ACCAGGACTA, the switch fluorescence ratio worked out at 1.038 ± 0.0017. In the case of TATAGCAAGT, the switch fluorescence ratio was 1.07 ± 0.034.

For the sequence GGGTTTTGTA, the switch fluorescence ratio was 0.974 ± 0.018. Next, GCCTTAAAGG: 1.005 ± 0.0029; AACGTAGATA: 1.042 ± 0.0098; CAGTCATGCC: 0.971 ± 0.058. TGAGGGTGTT: the switch fluorescence ratio was determined as 0.998 ± 0.011.

For TTTTAGAGAT, the switch fluorescence ratio was 1.02 ± 0.038. For TACTGGGTTC the value was 0.987 ± 0.047.

On to GGGCGGGTTT, for which the switch fluorescence ratio is 1.005 ± 0.0026. As for TTAGGAGACT, the switch fluorescence ratio amounted to 0.991 ± 0.029. Next, TGGAAGGGGA: 1 ± 0.013. For GGGTTAAGGG the value was 0.984 ± 0.035; for GACGGATTTA, 0.988 ± 0.035; for TACAGCAGTA, 1.1 ± 0.14. For the sequence AGCAAAAGAA, the switch fluorescence ratio is 1.12 ± 0.15.

Take AAAGAAAGC: the switch fluorescence ratio amounted to 1.02 ± 0.08.

With CTGGCTACGG, the switch fluorescence ratio was found to be 1.01 ± 0.032. For GAGTGTAGTC the value was 1.06 ± 0.011; for TCTGGTCATG, 0.995 ± 0.014; for GGGAGTTTGG, 0.975 ± 0.027. CAGGACAGCT: the switch fluorescence ratio is 1.02 ± 0.02.

As for CCTCCAGGGT, the switch fluorescence ratio is 2.5 ± 0.92. Consider CCACTGGGCA, for which the switch fluorescence ratio worked out at 1.02 ± 0.042. With GCATTGTTTG, the switch fluorescence ratio is 0.995 ± 0.034. Consider GCCAGCGATC, for which the switch fluorescence ratio was determined as 2.23 ± 0.81. With TGTTTTAAGC, the switch fluorescence ratio is 1.03 ± 0.022. Next, ACTTTGAAGC: 0.996 ± 0.019; ATGGGTGTAC: 1.01 ± 0.016; CATTGGACCT: 1.29 ± 0.089. For the sequence AACGTATGGG, the switch fluorescence ratio worked out at 1.03 ± 0.039. Consider GTGGTAAAGG, for which the switch fluorescence ratio is 0.9739 ± 0.0091. Next, CGAATAATCA: 0.982 ± 0.053; GCTTATTATT: 1.023 ± 0.0026. With TTTGAATCTT, the switch fluorescence ratio came to 1 ± 0.02. Turning to TGCCGGAAGA, the switch fluorescence ratio turned out to be 1.02 ± 0.029.

With ACGCCGGGGG, the switch fluorescence ratio stood at 1.01 ± 0.031. Regarding AAATGGGGTC, the switch fluorescence ratio was 0.998 ± 0.023. Regarding CTGTCAACGG, the switch fluorescence ratio stood at 1.02 ± 0.017. Consider ATTCGCGAGG, for which the switch fluorescence ratio stood at 0.982 ± 0.027.

For TATATGATG, the switch fluorescence ratio turned out to be 1.0194 ± 0.00035. As to GAGCGACCTG, the switch fluorescence ratio stood at 0.989 ± 0.016. Next, ATGTTAACTA: 0.985 ± 0.065. For CGTGTCGTGC, the switch fluorescence ratio came to 0.971 ± 0.062. Regarding GCGAATCGTA, the switch fluorescence ratio turned out to be 0.999 ± 0.049.

With TAGGTGAGGG, the switch fluorescence ratio stood at 1.11 ± 0.16. In the case of TATAAGTTGT, the switch fluorescence ratio worked out at 1 ± 0.011. For TACTACAGGG the value was 1.11 ± 0.013; for GATTAAGGT, 0.992 ± 0.014; for TTTCCTGGGC, 1.37 ± 0.61. In the case of ACAGTTTTTT, the switch fluorescence ratio came out at 0.98861 ± 1.6e-05.

Regarding GAGTAATGCT, the switch fluorescence ratio is 1.27 ± 0.017.

GTGGTGGCGG: the switch fluorescence ratio stood at 1.02 ± 0.017. Next, AGACGTCGGG: 1.016 ± 0.0031; GAATCACAGC: 1.02 ± 0.033; GGGGGGGCCT: 0.999 ± 0.036. GGGGATCGGG: the switch fluorescence ratio stood at 0.965 ± 0.022. For the sequence GCTTTTTTGA, the switch fluorescence ratio turned out to be 0.993 ± 0.042. TCGTAAGGAA: the switch fluorescence ratio was 1.01 ± 0.02. Next, TATGTGCTGT: 0.983 ± 0.011; TAGGGCGCCA: 0.995 ± 0.057; GGTTTGGTAT: 0.99 ± 0.021. With GCTTCAAGGC, the switch fluorescence ratio amounted to 1.03 ± 0.045. Take TAATCGGGGT: the switch fluorescence ratio was determined as 0.978 ± 0.038.

Regarding GGATGATGCA, the switch fluorescence ratio was 1.03 ± 0.028. In the case of TCGGGGAGGA, the switch fluorescence ratio was determined as 0.956 ± 0.026.

For CCTGGGGCCA, the switch fluorescence ratio was 1.03 ± 0.038. Take TTTCTCATTT: the switch fluorescence ratio is 0.972 ± 0.021.

ACTTATATAG: the switch fluorescence ratio came out at 1.012 ± 0.0065. Take GCTGAGGCTG: the switch fluorescence ratio was found to be 1 ± 0.032. Regarding TGGGAGGAGG, the switch fluorescence ratio stood at 1.01 ± 0.077.

On to TAATTCGTTA, for which the switch fluorescence ratio is 0.992 ± 0.037.

As for ATGATGCGTG, the switch fluorescence ratio turned out to be 0.981 ± 0.015. Turning to TTGGTGGTTG, the switch fluorescence ratio amounted to 0.993 ± 0.029. For GGGATTTTGG the value was 0.973 ± 0.026. With TCCTATGGGG, the switch fluorescence ratio was 0.9886 ± 0.0033. Take GAAGTAAGGA: the switch fluorescence ratio was found to be 1.01 ± 0.074. Regarding CCTAGGTCAT, the switch fluorescence ratio stood at 1.12 ± 0.15. As to TGGTTTAGCG, the switch fluorescence ratio was 0.964 ± 0.03.
